Test results: article PMC5395944

Target: PglK-E510Q (C. jejuni) (UniProt Q0P9C4)
Experiment: crystal structure

For “PglK-E510Q (from UniProt Q0P9C4) (natural protein)”, the stoichiometry N was 2.
